Laboratory results taken from patent US20090136936A1.
Where “and” joins values, the source holds several entries; their conditions need not be identical. Equal values may be shown once. Read-outs that look alike come from different tables or passages of the source. Values belong to the substance of their own block, whether it stands above or below them.

How the values were obtained:
[1] = target: Protein A-FITC (Staphylococcus aureus) (UniProt P38507); assay: flow cytometry (FL1-Height) of E. coli spheroplasts labelled with Protein A-FITC; Fc-cFos(Cys) co-expressed with the inner-membrane anchor NlpA-cJun(Cys)-FLAG; the same histogram stands in both panels [panels a and b]
[2] = target: Protein A-FITC (Staphylococcus aureus) (UniProt P38507); assay: flow cytometry (FL1-Height) of E. coli spheroplasts labelled with Protein A-FITC; one plasmid, no cJun(Cys) anchor co-expressed [panel b]
[3] = target: Recombinant human FcγRI/CD64, extracellular domain, glycosylated (human) (UniProt P12314); assay: flow cytometry of spheroplasts displaying the Fc clone, labelled with FcγRIa-FITC; the value is repeated on D00019 and D00020
[4] = target: Recombinant human FcγRI/CD64, extracellular domain, glycosylated (human) (UniProt P12314); assay: SPR (BIAcore 3000), FcγRIa immobilized on CM-5
[5] = target: Protein A-FITC (Staphylococcus aureus) (UniProt P38507); assay: flow cytometry (FL1-Height) of spheroplasts labelled with Protein A-FITC; medium TB
[6] = target: Protein A-FITC (Staphylococcus aureus) (UniProt P38507); assay: flow cytometry (FL1-Height) of spheroplasts labelled with Protein A-FITC; medium TB, 0.5M Trehalose
[7] = target: Protein A-FITC (Staphylococcus aureus) (UniProt P38507); assay: flow cytometry (FL1-Height) of E. coli spheroplasts labelled with Protein A-FITC; APEx displayed Fc [panel a]
[8] = target: Protein A-FITC (Staphylococcus aureus) (UniProt P38507); assay: flow cytometry (FL1-Height) of spheroplasts labelled with Protein A-FITC; medium 'TB, 0.5M Soribitol'
[9] = target: PA-FITC (PA antigen of Bacillus anthracis) (Bacillus anthracis) (UniProt P13423)
[10] = target: Protein A-FITC (Staphylococcus aureus) (UniProt P38507); assay: flow cytometry (FL1-Height) of E. coli spheroplasts labelled with Protein A-FITC; Fc-cFos co-expressed with the inner-membrane anchor NlpA-cJun-FLAG [panel a]
[11] = target: Protein A-FITC (Staphylococcus aureus) (UniProt P38507); assay: flow cytometry (FL1-Height) of E. coli spheroplasts labelled with Protein A-FITC; one plasmid, no cJun anchor co-expressed [panel b]
[12] = target: Protein A-FITC (Staphylococcus aureus) (UniProt P38507)
[13] = target: Protein A-FITC (Staphylococcus aureus) (UniProt P38507); remark: listed apart in the source
[14] = target: Protein A-FITC (Staphylococcus aureus) (UniProt P38507); assay: flow cytometry (FL1-Height) of E. coli spheroplasts labelled with Protein A-FITC; no Fc expressed [panel a]
[15] = target: extracellular domain of glycosylated FcγRIIa (R&D systems), FITC-labeled (human) (UniProt P12318); assay: flow cytometry of spheroplasts displaying the Fc, labelled with FcγRIIa-FITC
Chain of extracellular domain of glycosylated FcγRIIa (R&D systems), FITC-labeled (human) (P12318 34-217): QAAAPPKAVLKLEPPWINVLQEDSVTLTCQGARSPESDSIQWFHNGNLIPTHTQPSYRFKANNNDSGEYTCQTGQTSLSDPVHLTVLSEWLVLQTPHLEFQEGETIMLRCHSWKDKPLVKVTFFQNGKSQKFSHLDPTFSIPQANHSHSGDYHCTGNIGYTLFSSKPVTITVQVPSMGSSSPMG

Chain of Recombinant human FcγRI/CD64, extracellular domain, glycosylated (human) (P12314 16-292): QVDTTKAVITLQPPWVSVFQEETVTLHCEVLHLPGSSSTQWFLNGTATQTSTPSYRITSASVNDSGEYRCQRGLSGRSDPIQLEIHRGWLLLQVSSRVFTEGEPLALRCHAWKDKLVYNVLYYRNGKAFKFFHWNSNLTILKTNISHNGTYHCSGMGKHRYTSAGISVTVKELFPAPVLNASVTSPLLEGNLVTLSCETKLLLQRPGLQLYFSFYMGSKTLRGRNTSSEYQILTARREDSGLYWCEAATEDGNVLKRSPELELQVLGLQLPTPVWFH

Mn (mean fluorescence intensity) [1]: 733 | Mn (mean fluorescence intensity) [2]: 879
Substance: PelB-Fc-cFos(Cys)-His

FACS mean value [3]: 391
Substance: Fc117 (E382V, M428I, Y436A), aglycosylated Fc mutant (from UniProt P0DOX5 223-449)

Kd [4]: 18 nM
Substance: commercially available glycosylated human IgG1 (antibody)

Mn (mean fluorescence intensity) [5]: 1080 | Mn (mean fluorescence intensity) [6]: 3130 | Mn (mean fluorescence intensity) [7]: 2410 | Mn (mean fluorescence intensity) [8]: 1290
Substance: NlpA-Fc-His

Substance: 26-10 scAb (anti-digoxin)
Mn (mean fluorescence intensity) [9]: 14.7

Mn (mean fluorescence intensity) [10]: 244 | Mn (mean fluorescence intensity) [11]: 837
Substance: PelB-Fc-cFos-His

Substance: M18 scFv (PelB fused, anti-PA)
M (mean fluorescence intensity) [12]: 43 | M (mean fluorescence intensity) [13]: 40 and 62.9

Substance: M18.1 humanized IgG1 (antibody)
Mn (mean fluorescence intensity) [9]: 164

Substance: NlpA-cJun(Cys)-FLAG
Mn (mean fluorescence intensity) [14]: 111

Substance: M18.1 humanized scAb
Mn (mean fluorescence intensity) [9]: 277

Substance: 26-10 IgG1 (anti-digoxin) (antibody)
Mn (mean fluorescence intensity) [9]: 13.9

Substance: 26-10 scFv (anti-digoxin)
Mn (mean fluorescence intensity) [9]: 16.3

Substance: M18.1 humanized scFv
Mn (mean fluorescence intensity) [9]: 313

M (mean fluorescence intensity) [15]: 66.7
Substance: Fc5 (E382V, M428I), aglycosylated Fc mutant (from UniProt P0DOX5 223-449)
